Source: article PMC11189300 (2024)

T1: Mis12C with KNL1_(2,026–2,342) bound (human, UniProt Q9H081 1-205; Q6P1K2 1-205; Q96IY1 1-281; Q9H410 1-356; Q8NG31 2026-2342)
T1 chain 1: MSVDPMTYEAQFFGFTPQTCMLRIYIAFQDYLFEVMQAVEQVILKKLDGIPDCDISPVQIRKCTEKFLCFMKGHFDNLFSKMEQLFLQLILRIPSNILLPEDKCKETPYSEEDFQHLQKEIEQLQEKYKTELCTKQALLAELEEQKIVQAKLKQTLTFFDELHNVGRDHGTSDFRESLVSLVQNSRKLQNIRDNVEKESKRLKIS
T1 chain 2: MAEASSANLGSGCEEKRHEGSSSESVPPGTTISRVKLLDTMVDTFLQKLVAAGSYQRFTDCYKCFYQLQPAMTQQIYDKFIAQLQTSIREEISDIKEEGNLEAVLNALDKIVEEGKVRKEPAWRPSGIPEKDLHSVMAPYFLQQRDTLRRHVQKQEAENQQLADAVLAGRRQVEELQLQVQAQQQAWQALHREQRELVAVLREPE
T1 chain 3: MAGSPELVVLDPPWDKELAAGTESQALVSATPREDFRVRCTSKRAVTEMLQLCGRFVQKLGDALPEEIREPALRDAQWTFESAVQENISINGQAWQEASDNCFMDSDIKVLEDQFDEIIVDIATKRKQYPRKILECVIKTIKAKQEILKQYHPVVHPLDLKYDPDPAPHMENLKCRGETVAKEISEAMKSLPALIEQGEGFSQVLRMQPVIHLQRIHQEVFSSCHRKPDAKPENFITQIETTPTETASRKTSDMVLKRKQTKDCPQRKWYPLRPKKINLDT
T1 chain 4: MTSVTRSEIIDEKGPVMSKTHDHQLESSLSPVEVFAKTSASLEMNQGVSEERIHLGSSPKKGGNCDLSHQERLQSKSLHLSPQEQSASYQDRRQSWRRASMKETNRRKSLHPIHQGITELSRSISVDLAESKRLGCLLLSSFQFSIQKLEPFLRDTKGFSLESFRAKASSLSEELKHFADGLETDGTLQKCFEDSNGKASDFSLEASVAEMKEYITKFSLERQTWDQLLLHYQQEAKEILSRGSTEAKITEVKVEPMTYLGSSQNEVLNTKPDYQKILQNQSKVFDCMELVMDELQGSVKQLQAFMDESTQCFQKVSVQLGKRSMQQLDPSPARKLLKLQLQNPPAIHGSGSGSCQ
T1 chain 5: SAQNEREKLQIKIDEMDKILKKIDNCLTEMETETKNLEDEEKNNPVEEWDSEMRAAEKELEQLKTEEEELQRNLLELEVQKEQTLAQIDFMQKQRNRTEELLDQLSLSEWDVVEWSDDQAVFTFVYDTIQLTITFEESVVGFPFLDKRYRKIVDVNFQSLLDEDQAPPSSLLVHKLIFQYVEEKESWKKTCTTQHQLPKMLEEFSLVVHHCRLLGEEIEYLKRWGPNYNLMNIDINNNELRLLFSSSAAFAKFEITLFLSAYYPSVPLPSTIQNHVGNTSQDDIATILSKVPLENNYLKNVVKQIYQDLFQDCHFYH

T2: KNL1 (construct of the BLI titrations with ZWINT) (human, UniProt Q8NG31)
T2 chain: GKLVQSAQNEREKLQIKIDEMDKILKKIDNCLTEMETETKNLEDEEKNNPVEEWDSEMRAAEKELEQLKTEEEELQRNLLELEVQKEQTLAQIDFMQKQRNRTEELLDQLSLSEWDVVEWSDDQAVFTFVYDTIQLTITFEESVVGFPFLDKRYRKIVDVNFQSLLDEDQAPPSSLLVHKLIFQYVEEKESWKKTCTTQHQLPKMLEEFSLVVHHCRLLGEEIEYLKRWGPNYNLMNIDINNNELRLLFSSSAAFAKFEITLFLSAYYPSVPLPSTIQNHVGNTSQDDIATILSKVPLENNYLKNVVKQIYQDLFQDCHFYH

B1: KNL1 residues 2,026–2,342 (domain or fragment)
chain: T1 chain 5
B2: Ndc80 complex (Ndc80C): NDC80^HEC1, NUF2, SPC24, SPC25 (complex)
chain 1: MKRSSVSSGGAGRLSMQELRSQDVNKQGLYTPQTKEKPTFGKLSINKPTSERKVSLFGKRTSGHGSRNSQLGIFSSSEKIKDPRPLNDKAFIQQCIRQLCEFLTENGYAHNVSMKSLQAPSVKDFLKIFTFLYGFLCPSYELPDTKFEEEVPRIFKDLGYPFALSKSSMYTVGAPHTWPHIVAALVWLIDCIKIHTAMKESSPLFDDGQPWGEETEDGIMHNKLFLDYTIKCYESFMSGADSFDEMNAELQSKLKDLFNVDAFKLESLEAKNRALNEQIARLEQEREKEPNRLESLRKLKASLQGDVQKYQAYMSNLESHSAILDQKLNGLNEEIARVELECETIKQENTRLQNIIDNQKYSVADIERINHERNELQQTINKLTKDLEAEQQKLWNEELKYARGKEAIETQLAEYHKLARKLKLIPKGAENSKGYDFEIKFNPEAGANCLVKYRAQVYVPLKELLNETEEEINKALNKKMGLEDTLEQLNAMITESKRSVRTLKEEVQKLDDLYQQKIKEAEEEDEKCASELESLEKHKHLLESTVNQGLSEAMNELDAVQREYQLVVQTTTEERRKVGNNLQRLLEMVATHVGSVEKHLEEQIAKVDREYEECMSEDLSENIKEIRDKYEKKATLIKSSEE
chain 2: METLSFPRYNVAEIVIHIRNKILTGADGKNLTKNDLYPNPKPEVLHMIYMRALQIVYGIRLEHFYMMPVNSEVMYPHLMEGFLPFSNLVTHLDSFLPICRVNDFETADILCPKAKRTSRFLSGIINFIHFREACRETYMEFLWQYKSSADKMQQLNAAHQEALMKLERLDSVPVEEQEEFKQLSDGIQELQQSLNQDFHQKTIVLQEGNSQKKSNISEKTKRLNELKLSVVSLKEIQESLKTKIVDSPEKLKNYKEKMKDTVQKLKNARQEVVEKYEIYGDSVDCLPSCQLEVQLYQKKIQDLSDNREKLASILKESLNLEDQIESDESELKKLKTEENSFKRLMIVKKEKLATAQFKINKKHEDVKQYKRTVIEDCNKVQEKRGAVYERVTTINQEIQKIKLGIQQLKDAAEREKLKSQEIFLNLKTALEKYHDGIEKAAEDSYAKIDEKTAELKRKMFKMST
chain 3: MAAFRDIEEVSQGLLSLLGANRAEAQQRRLLGRHEQVVERLLETQDGAEKQLREILTMEKEVAQSLLNAKEQVHQGGVELQQLEAGLQEAGEEDTRLKASLLQLTRELEELKEIEADLERQEKEVDEDTTVTIPSAVYVAQLYHQVSKIEWDYECEPGMVKGIHHGPSVAQPIHLDSTQLSRKFISDYLWSLVDTEW
chain 4: MVEDELALFDKSINEFWNKFKSTDTSCQMAGLRDTYKDSIKAFAEKLSVKLKEEERMVEMFLEYQNQISRQNKLIQEKKDNLLKLIAEVKGKKQELEVLTANIQDLKEEYSRKKETISTANKANAERLKRLQKSADLYKDRLGLEIRKIYGEKLQFIFTNIDPKNPESPFMFSLHLNEARDYEVSDSAPHLEGLAEFQENVRKTNNFSAFLANVRKAFTATVYN
B3: Mis12 complex (Mis12C), full length: MIS12, PMF1, NSL1, DSN1 (complex)
chain 1: T1 chain 1
chain 2: T1 chain 2
chain 3: T1 chain 3
chain 4: T1 chain 4
B4: ZWINT (natural protein)
chain: MEAAETEAEAAALEVLAEVAGILEPVGLQEEAELPAKILVEFVVDSQKKDKLLCSQLQVADFLQNILAQEDTAKGLDPLASEDTSRQKAIAAKEQWKELKATYREHVEAIKIGLTKALTQMEEAQRKRTQLREAFEQLQAKKQMAMEKRRAVQNQWQLQQEKHLQHLAEVSAEVRERKTGTQQELDRVFQKLGNLKQQAEQERDKLQRYQTFLQLLYTLQGKLLFPEAEAEAENLPDDKPQQPTRPQEQSTGDTMGRDPGVSFKAVGLQPAGDVNLP

Legend:
[1] = biological target: B3; test: BLI
Mis12C^M2 = Mis12C^M2 (human, UniProt Q9H081 1-205; Q6P1K2 1-205; Q96IY1 1-281; Q9H410 1-356); test: ITC
Mis12C^M1 = Mis12C^M1 (human, UniProt Q9H081 1-205; Q6P1K2 1-205; Q96IY1 1-281; Q9H410 1-356); test: ITC
[2] = biological target: T1, Mis12C with KNL1_(2,026–2,342) bound; test: BLI
[3] = biological target: T1, Mis12C with KNL1_(2,026–2,342) bound; test: BLI
SPC24^Y138A/SPC25 = SPC24^Y138A/SPC25 (human, UniProt Q8NBT2 1-197; Q9HBM1 1-224, Y138A); test: ITC
SPC24/SPC25^L154A-L176A = SPC24/SPC25^L154A-L176A (human, UniProt Q8NBT2 1-197; Q9HBM1 1-224, L154A | L176A); test: ITC
KNL1^M1 = KNL1^M1 (human, UniProt Q8NG31); test: ITC
KNL1^M2 = KNL1^M2 (human, UniProt Q8NG31); test: ITC
[4] = biological target: T2, KNL1 (construct of the BLI titrations …); test: BLI; Kd2 (second site)
[5] = biological target: T2, KNL1 (construct of the BLI titrations …); test: BLI; Kd1

Binder: B1
- koff [1]: 0.000451 s⁻¹
- Kd (Mis12C^M2): 24.8 nM
- Kd (Mis12C^M1): 45.2 nM

Binder: B2
- Kd [2]: 1.15 nM
- koff [1]: 0.000582 s⁻¹
- koff [3]: 0.00024 s⁻¹

Binder: B3
- Kd (SPC24^Y138A/SPC25): 295 nM
- Kd (SPC24/SPC25^L154A-L176A): 1270 nM
- Kd (KNL1^M1): 140 nM
- Kd (KNL1^M2): 109 nM

Binder: B4
- Kd [4]: 65.3 nM
- Kd [5]: 81.8 nM
